T1: ChCpc1 (Cochliobolus heterostrophus C4 (Tox1+, …, UniProt M2T2C6 1-465))
T1 sequence: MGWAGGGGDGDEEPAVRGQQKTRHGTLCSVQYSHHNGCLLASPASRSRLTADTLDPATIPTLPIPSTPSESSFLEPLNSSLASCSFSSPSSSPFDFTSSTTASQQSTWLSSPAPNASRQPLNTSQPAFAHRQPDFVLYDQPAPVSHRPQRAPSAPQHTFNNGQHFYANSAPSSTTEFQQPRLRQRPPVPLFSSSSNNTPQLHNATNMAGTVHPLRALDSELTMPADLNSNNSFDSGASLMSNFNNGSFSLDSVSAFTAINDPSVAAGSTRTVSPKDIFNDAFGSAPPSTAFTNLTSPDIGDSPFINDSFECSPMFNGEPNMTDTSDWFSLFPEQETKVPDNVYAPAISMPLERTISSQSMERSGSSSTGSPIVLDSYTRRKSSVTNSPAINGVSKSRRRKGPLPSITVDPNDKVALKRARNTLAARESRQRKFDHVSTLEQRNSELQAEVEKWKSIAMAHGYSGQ

T2: ChAtf1 (Cochliobolus heterostrophus C4 (Tox1+, …, UniProt M2TIN4 1-567))
T2 sequence: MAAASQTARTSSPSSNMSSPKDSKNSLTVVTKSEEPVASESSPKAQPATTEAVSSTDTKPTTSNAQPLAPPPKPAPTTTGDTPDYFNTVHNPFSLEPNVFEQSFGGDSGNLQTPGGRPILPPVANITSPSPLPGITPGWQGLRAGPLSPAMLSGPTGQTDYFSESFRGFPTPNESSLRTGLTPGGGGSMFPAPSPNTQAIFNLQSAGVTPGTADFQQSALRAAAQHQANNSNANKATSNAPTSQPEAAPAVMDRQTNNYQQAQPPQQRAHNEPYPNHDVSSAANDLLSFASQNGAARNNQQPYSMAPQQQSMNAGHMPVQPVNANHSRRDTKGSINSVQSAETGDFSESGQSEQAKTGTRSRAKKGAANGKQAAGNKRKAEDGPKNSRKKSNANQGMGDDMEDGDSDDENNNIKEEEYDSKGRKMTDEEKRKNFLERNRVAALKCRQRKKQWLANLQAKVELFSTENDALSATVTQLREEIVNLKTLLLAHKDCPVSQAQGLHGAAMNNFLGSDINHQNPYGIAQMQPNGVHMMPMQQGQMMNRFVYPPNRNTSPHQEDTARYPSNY

B1: ChARG4 promoter probe (dsDNA)
DNA 1: CATTGGCGTTTGGGACTGAATTACAATGAGTAATGAAATAACTCACACCACAAAGCAGTA
DNA 2: TACTGCTTTGTGGTGTGAGTTATTTCATTACTCATTGTAATTCAGTCCCAAACGCCAATG
B2: ChATG7 promoter probe (dsDNA)
DNA 1: TCCCAAATGTCGGTCGTGACCCATCGTTCCCTCCATCTCA
DNA 2: TGAGATGGAGGGAACGATGGGTCACGACCGACATTTGGGA
B3: ChATG9 promoter probe (dsDNA)
DNA 1: GCGGCGCGTCACCTGCATGAGTCCCATGTCGATGAGGCGCT
DNA 2: AGCGCCTCATCGACATGGGACTCATGCAGGTGACGCGCCGC
B4: ChATG5 promoter probe (dsDNA)
DNA 1: CAGCTATGTTGCGTTAGTAAGTCACCCATCTACGCTGTCGC
DNA 2: GCGACAGCGTAGATGGGTGACTTACTAACGCAACATAGCTG
B5: ChATG8 promoter probe (dsDNA)
DNA 1: GGAGAGCGTGAAGGAGAGAGACGGGATGAGTCAAAGTACCCAGGTAGCCAGGTCATGGGA
DNA 2: TCCCATGACCTGGCTACCTGGGTACTTTGACTCATCCCGTCTCTCTCCTTCACGCTCTCC
B6: ChARG1 promoter probe (dsDNA)
DNA 1: AAGACAGTGGTGGAGATCAAGTTGGATGAGTAACTTGGCGCTGCACTCGATTCGCGTGTT
DNA 2: CCAACTTGATCTCCACCACTGTCTT

What was measured:
ChCpc1 [1] = molecular target: T1, ChCpc1; experiment: EMSA; 100x unlabeled competitor prevents binding; Light Shift Chemiluminescent EMSA Kit (Beyotime), 20 min at 25°C; 6.5% polyacrylamide gel, 0.5x TBE; binding buffer, salt and pH not stated; conditions: protein: recombinant, tags: His (pET-32a), chain copies: 2, label: biotin (on forward strand)
ChAtf1 = molecular target: T2, ChAtf1; experiment: EMSA; ChAtf1 alone; Light Shift Chemiluminescent EMSA Kit (Beyotime), 20 min at 25°C; 6.5% polyacrylamide gel, 0.5x TBE; binding buffer, salt and pH not stated; conditions: protein: recombinant; tags: His (pET32a); chain copies: 2; label: biotin (on forward strand); blunt
ChCpc1 [2] = molecular target: T1, ChCpc1; experiment: EMSA; Light Shift Chemiluminescent EMSA Kit (Beyotime), 20 min at 25°C; 6.5% polyacrylamide gel, 0.5x TBE; binding buffer, salt and pH not stated; conditions: protein: recombinant; tags: His (pET-32a); chain copies: 2; label: biotin (on forward strand); blunt
ChCpc1 [3] = molecular target: T1, ChCpc1; experiment: EMSA; strongest of the four ATG probes; Light Shift Chemiluminescent EMSA Kit (Beyotime), 20 min at 25°C; 6.5% polyacrylamide gel, 0.5x TBE; binding buffer, salt and pH not stated; conditions: protein: recombinant; tags: His (pET-32a); chain copies: 2; label: biotin (on forward strand); blunt

Binder	binding result (ChAtf1)	binding result (ChCpc1 [2])	other results
B1	no binding	–	binding result (ChCpc1 [1]; blunt): binds
B2	–	binds	–
B3	–	–	binding result (ChCpc1 [3]): binds
B4	–	binds	–
B5	no binding	binds	–
B6	–	–	binding result (ChCpc1 [1]; printed reverse oligo (25 nt) pairs only with nt 1-25 of the 60-nt forward strand, possibly printed incomplete): binds
